Source: paper PMC7229842, “Molecular basis of the multifaceted functions of human leucyl-tRNA synthetase in protein synthesis and beyond” (Nucleic Acids Research, 2020)
Each block holds one binder with its values, some of them ahead of it.

Tests used:
[1] = target: T1, MRS-AIMP3 complex (human cytosolic methionyl-tRNA synthetase co-expressed with AIMP3) (human, UniProt P56192 1-900; O43324 1-174); experiment: pull-down; in vitro assembly of the MSC as in a2 but lacking IRS; anti-Flag beads on MRS-Flag; settings: both partners purified
T1 construct: human cytosolic methionyl-tRNA synthetase (MRS), gene cloned from the cDNA of HEK293 cells; Only MRS carries the Flag tag; It is the bait of the anti-Flag pull-down of the assembled MSC; source: co-expressed from a modified pETDuet-1, purified (Ni-NTA, gel filtration); not shown: Flag, C-terminal, kept
T1 sequence (looked up) 1: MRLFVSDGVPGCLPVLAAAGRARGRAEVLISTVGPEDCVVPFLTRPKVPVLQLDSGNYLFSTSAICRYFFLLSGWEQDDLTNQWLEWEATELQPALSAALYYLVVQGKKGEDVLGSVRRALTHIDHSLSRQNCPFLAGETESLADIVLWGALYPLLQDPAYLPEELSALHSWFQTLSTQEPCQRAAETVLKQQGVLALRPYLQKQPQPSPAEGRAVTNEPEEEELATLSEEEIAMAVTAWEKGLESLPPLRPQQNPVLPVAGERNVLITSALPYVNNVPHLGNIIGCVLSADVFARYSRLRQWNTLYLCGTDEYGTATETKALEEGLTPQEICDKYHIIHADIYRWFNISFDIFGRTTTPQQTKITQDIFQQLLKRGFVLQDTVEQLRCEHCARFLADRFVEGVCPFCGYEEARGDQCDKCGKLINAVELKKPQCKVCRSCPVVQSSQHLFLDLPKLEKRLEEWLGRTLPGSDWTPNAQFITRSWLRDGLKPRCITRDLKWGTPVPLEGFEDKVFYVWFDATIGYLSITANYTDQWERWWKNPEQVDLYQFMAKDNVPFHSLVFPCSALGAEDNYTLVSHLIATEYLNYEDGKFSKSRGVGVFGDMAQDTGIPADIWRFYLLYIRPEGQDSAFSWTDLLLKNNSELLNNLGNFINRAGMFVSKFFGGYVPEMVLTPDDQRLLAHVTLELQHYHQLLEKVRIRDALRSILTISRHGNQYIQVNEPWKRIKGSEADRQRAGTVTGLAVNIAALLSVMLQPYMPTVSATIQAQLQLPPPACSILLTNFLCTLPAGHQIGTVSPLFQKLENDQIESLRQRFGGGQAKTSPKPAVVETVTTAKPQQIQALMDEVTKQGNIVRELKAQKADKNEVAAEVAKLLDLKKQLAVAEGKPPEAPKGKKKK
T1 sequence (looked up) 2: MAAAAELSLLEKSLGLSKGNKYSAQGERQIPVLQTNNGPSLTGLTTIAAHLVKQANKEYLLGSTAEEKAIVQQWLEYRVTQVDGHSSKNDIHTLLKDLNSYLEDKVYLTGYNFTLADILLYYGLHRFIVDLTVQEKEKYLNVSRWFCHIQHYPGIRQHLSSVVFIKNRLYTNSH

[2] = target: T2, Human cytosolic isoleucyl-tRNA synthetase (human, UniProt P41252 1-1262); experiment: SEC; purified hcLRS (or hcLRS_d106) incubated with each partner separately for 4 h, then run on gel filtration; protein incubated with buffer as control; settings: both partners purified
T2 construct: human cytosolic isoleucyl-tRNA synthetase (IRS), gene cloned from the cDNA of HEK293 cells; also called IRS; source: recombinant from a modified pET28b, purified (Ni-NTA, gel filtration)
T2 sequence (looked up): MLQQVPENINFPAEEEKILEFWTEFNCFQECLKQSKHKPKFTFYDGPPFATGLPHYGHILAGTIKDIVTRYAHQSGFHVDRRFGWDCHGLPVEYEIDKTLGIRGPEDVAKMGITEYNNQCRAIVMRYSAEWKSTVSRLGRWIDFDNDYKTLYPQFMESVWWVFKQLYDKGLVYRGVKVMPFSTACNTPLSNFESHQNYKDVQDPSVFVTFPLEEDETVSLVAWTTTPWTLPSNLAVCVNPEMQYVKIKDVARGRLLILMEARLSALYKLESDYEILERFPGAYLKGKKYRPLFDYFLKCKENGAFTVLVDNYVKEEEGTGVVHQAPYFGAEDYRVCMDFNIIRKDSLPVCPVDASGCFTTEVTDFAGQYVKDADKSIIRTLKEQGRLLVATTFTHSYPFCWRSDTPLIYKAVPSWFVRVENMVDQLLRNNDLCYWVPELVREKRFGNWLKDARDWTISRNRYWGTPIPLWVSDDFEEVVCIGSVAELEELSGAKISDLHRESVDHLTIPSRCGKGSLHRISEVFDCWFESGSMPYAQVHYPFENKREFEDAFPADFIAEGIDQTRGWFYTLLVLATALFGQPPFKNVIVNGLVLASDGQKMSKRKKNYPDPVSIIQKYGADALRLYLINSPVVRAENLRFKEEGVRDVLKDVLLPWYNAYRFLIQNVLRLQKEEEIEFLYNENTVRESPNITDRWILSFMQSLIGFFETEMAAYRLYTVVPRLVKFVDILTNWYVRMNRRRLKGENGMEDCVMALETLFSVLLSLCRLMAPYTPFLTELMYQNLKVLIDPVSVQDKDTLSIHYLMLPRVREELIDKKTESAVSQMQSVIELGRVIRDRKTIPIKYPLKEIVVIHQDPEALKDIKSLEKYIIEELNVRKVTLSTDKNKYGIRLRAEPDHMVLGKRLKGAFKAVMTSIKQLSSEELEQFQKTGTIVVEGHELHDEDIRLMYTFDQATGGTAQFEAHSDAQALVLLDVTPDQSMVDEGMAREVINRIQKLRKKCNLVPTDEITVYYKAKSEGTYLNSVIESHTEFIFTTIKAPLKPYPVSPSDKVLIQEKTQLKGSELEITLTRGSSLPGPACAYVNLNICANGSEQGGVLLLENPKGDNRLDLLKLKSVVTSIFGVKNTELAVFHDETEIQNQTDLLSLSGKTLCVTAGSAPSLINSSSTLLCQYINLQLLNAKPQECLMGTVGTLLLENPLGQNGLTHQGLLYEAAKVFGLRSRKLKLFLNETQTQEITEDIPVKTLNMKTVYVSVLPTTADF

- binding result [1]: binds
B1: Human cytosolic aspartyl-tRNA synthetase (enzyme, UniProt P14868 1-501, looked up)
chain: MPSASASRKSQEKPREIMDAAEDYAKERYGISSMIQSQEKPDRVLVRVRDLTIQKADEVVWVRARVHTSRAKGKQCFLVLRQQQFNVQALVAVGDHASKQMVKFAANINKESIVDVEGVVRKVNQKIGSCTQQDVELHVQKIYVISLAEPRLPLQLDDAVRPEAEGEEEGRATVNQDTRLDNRVIDLRTSTSQAVFRLQSGICHLFRETLINKGFVEIQTPKIISAASEGGANVFTVSYFKNNAYLAQSPQLYKQMCICADFEKVFSIGPVFRAEDSNTHRHLTEFVGLDIEMAFNYHYHEVMEEIADTMVQIFKGLQERFQTEIQTVNKQFPCEPFKFLEPTLRLEYCEALAMLREAGVEMGDEDDLSTPNEKLLGHLVKEKYDTDFYILDKYPLAVRPFYTMPDPRNPKQSNSYDMFMRGEEILSGAQRIHDPQLLTERALHHGIDLEKIKAYIDSFRFGAPPHAGGGIGLERVTMLFLGLHNVRQTSMFPRDPKRLTP
notes: human cytosolic DRS, gene cloned from the cDNA of HEK293 cells; also called DRS; source: recombinant from a modified pET28b, purified (Ni-NTA, gel filtration)

- binding result [1]: binds
B2: Human cytosolic glutaminyl-tRNA synthetase (enzyme, UniProt P47897 1-775, looked up)
chain: MAALDSLSLFTSLGLSEQKARETLKNSALSAQLREAATQAQQTLGSTIDKATGILLYGLASRLRDTRRLSFLVSYIASKKIHTEPQLSAALEYVRSHPLDPIDTVDFERECGVGVIVTPEQIEEAVEAAINRHRPQLLVERYHFNMGLLMGEARAVLKWADGKMIKNEVDMQVLHLLGPKLEADLEKKFKVAKARLEETDRRTAKDVVENGETADQTLSLMEQLRGEALKFHKPGENYKTPGYVVTPHTMNLLKQHLEITGGQVRTRFPPEPNGILHIGHAKAINFNFGYAKANNGICFLRFDDTNPEKEEAKFFTAICDMVAWLGYTPYKVTYASDYFDQLYAWAVELIRRGLAYVCHQRGEELKGHNTLPSPWRDRPMEESLLLFEAMRKGKFSEGEATLRMKLVMEDGKMDPVAYRVKYTPHHRTGDKWCIYPTYDYTHCLCDSIEHITHSLCTKEFQARRSSYFWLCNALDVYCPVQWEYGRLNLHYAVVSKRKILQLVATGAVRDWDDPRLFTLTALRRRGFPPEAINNFCARVGVTVAQTTMEPHLLEACVRDVLNDTAPRAMAVLESLRVIITNFPAAKSLDIQVPNFPADETKGFHQVPFAPIVFIERTDFKEEPEPGFKRLAWGQPVGLRHTGYVIELQHVVKGPSGCVESLEVTCRRADAGEKPKAFIHWVSQPLMCEVRLYERLFQHKNPEDPTEVPGGFLSDLNLASLHVVDAALVDCSVALAKPFDKFQFERLGYFSVDPDSHQGKLVFNRTVTLKEDPGKV
notes: human cytosolic QRS, gene cloned from the cDNA of HEK293 cells; also called QRS; source: recombinant from a modified pET28b, purified (Ni-NTA, gel filtration)

- binding result [1]: binds
B3: Human cytosolic arginyl-tRNA synthetase (enzyme, UniProt P54136 1-660, looked up)
chain: MDVLVSECSARLLQQEEEIKSLTAEIDRLKNCGCLGASPNLEQLQEENLKLKYRLNILRKSLQAERNKPTKNMINIISRLQEVFGHAIKAAYPDLENPPLLVTPSQQAKFGDYQCNSAMGISQMLKTKEQKVNPREIAENITKHLPDNECIEKVEIAGPGFINVHLRKDFVSEQLTSLLVNGVQLPALGENKKVIVDFSSPNIAKEMHVGHLRSTIIGESISRLFEFAGYDVLRLNHVGDWGTQFGMLIAHLQDKFPDYLTVSPPIGDLQVFYKESKKRFDTEEEFKKRAYQCVVLLQGKNPDITKAWKLICDVSRQELNKIYDALDVSLIERGESFYQDRMNDIVKEFEDRGFVQVDDGRKIVFVPGCSIPLTIVKSDGGYTYDTSDLAAIKQRLFEEKADMIIYVVDNGQSVHFQTIFAAAQMIGWYDPKVTRVFHAGFGVVLGEDKKKFKTRSGETVRLMDLLGEGLKRSMDKLKEKERDKVLTAEELNAAQTSVAYGCIKYADLSHNRLNDYIFSFDKMLDDRGNTAAYLLYAFTRIRSIARLANIDEEMLQKAARETKILLDHEKEWKLGRCILRFPEILQKILDDLFLHTLCDYIYELATAFTEFYDSCYCVEKDRQTGKILKVNMWRMLLCEAVAAVMAKGFDILGIKPVQRM
notes: human cytosolic RRS, gene cloned from the cDNA of HEK293 cells; also called RRS; source: recombinant from a modified pET28b, purified (Ni-NTA, gel filtration)

- binding result [1]: binds
B4: AaRS-interacting multi-functional protein 1 (natural protein, human, UniProt Q12904 1-312, looked up)
chain: MANNDAVLKRLEQKGAEADQIIEYLKQQVSLLKEKAILQATLREEKKLRVENAKLKKEIEELKQELIQAEIQNGVKQIPFPSGTPLHANSMVSENVIQSTAVTTVSSGTKEQIKGGTGDEKKAKEKIEKKGEKKEKKQQSIAGSADSKPIDVSRLDLRIGCIITARKHPDADSLYVEEVDVGEIAPRTVVSGLVNHVPLEQMQNRMVILLCNLKPAKMRGVLSQAMVMCASSPEKIEILAPPNGSVPGDRITFDAFPGEPDKELNPKKKIWEQIQPDLHTNDECVATYKGVPFEVKGKGVCRAQTMSNSGIK
notes: human AIMP1, gene cloned from the cDNA of HEK293 cells; also called AIMP1; source: recombinant from a modified pET28b, purified (Ni-NTA, gel filtration)

- binding result [2]: binds
B5: Human cytosolic leucyl-tRNA synthetase, full length (enzyme)
chain: not shown
notes: human cytosolic leucyl-tRNA synthetase, UniProt Q9P2J5, 1176 residues; also called hcLRS; FL-hcLRS; source: recombinant from pET16b-hcLRS, purified (Ni-NTA, gel filtration)
